IntAct's records for PubMed 19074269

B1: Basic leucine zipper transcriptional factor ATF-like 2 (Homo sapiens), Q8N1L9-1 (parent)
chain: MHLCGGNGLLTQTDPKEQQRQLKKQKNRAAAQRSRQKHTDKADALHQQHESLEKDNLALRKEIQSLQAELAWWSRTLHVHERLCPMDCASCSAPGLLGCWDQAEGLLGPGPQGQHGCREQLELFQTPGSCYPAQPLSPGPQPHDSPSLLQCPLPSLSLGPAVVAEPPVQLSPSPLLFASHTGSSLQGSSSKLSALQPSLTAQTAPPQPLELEHPTRGKLGSSPDNPSSALGLARLQSREHKPALSAATWQGLVVDPSPHPLLAFPLLSSAQVHF

Variants of: B1
Conditions: with jun_human JUN

Variant	effect of a mutation on the interaction
L59P	disrupting interaction
